These results are taken from patent US20180016324A1 (Regeneron, published 2018).

The target of experiment [1] is T1, ZIKV (prM80E) with a C-terminal myc-myc-hexahistidine tag (Zika virus, UniProt A0A024B7W1 104-694).
T1 construct: also called ZIKV (prM80E)-mmH; ZIKV-mmH
Put plainly: SPR, mAb captured, 37C.

Experiment [2] deals with T1, ZIKV (prM80E) with a C-terminal …. Put plainly: SPR, mAb captured, 37C. The source holds these as a separate data set.
The target is the same in experiment [3]. Put plainly: SPR, mAb captured, 37C. The source holds these as a separate data set.
The target in experiment [4] is T2, ZIKV prM/E polyprotein on virus-like particles (VLPs) from HEK293T/17 cells (Zika virus, UniProt A0A024B7W1 123-795).
T2 construct: also called ZIKV prM/E VLPs; Zika prM/E VLPs
Put plainly: MSD ECL, VLPs on plate.

The target in experiment [5] is T1, ZIKV (prM80E) with a C-terminal …. Put plainly: SPR, mAb captured, 37C, pH 5.5 chase.
The target in experiment [6] is T3, ZIKV envelope glycoprotein (E) of strain MR766 (Uganda 1947) (Zika virus, UniProt Q32ZE1 291-790). Put plainly: cell-based or functional assay.
Experiment [7] has as its target ZIKV envelope glycoprotein (E) of strain PRVABC59 (Puerto Rico 2015) (Zika virus). Put plainly: cell-based or functional assay.
Experiment [8] deals with ZIKV envelope glycoprotein (E) of strain FLR (Colombia 2015) (Zika virus). Put plainly: cell-based or functional assay.
Experiment [9] has as its target T1, ZIKV (prM80E) with a C-terminal …. Put plainly: SPR, mAb captured, 25C.
For experiment [10] the target is unchanged. Put plainly: SPR, mAb captured, 37C, pH 6.0 chase.
Experiment [11] concerns the target ZIKV E protein with escape mutation S302F (Zika virus). Put plainly: cell-based or functional assay.
In experiment [12] the target is T1, ZIKV (prM80E) with a C-terminal …. Put plainly: SPR, mAb captured, 37C, pH 7.4.
Experiment [13] has the same target. Put plainly: SPR, mAb captured, 37C, pH 5.0 chase.
For experiment [14], the target named is T2, ZIKV prM/E polyprotein on virus-like …. Put plainly: MSD ECL, VLPs on plate; high concentrations excluded from fit.
In experiment [15] the target is T3, ZIKV envelope glycoprotein (E) of …. Put plainly: cell-based or functional assay. The source holds these as a separate data set.

Like-named read-outs stand apart in the source and are kept apart here.

B1: H4H25619P (antibody, V domains shown)
VH: QVQLVESGGGVVQPGRSLRLSCTASGFTFSTYGMHWVRHVPGKGLEWVAIVWYDGSDKSYAASVKGRFTISRDNSKNTLFLQMNSLRAEDTAVYYCARQGTYYYYGMDVWGQGTTVTVSS
VL: DIQMTQSPSSLSASVGDRVTITCRSSQTITNYLNWYQQRPGKAPKLLIYAASSLQSGVPSRFSGSGSGTDFTLTISSLQPEDFATYYCQQSYSTPPITFGQGTKLEIKR
Take B1: the Kd amounted to 5.59 nM in experiment [1] and 3.14 nM in [9]. The koff was 0.00108 s⁻¹ in experiment [1]; 0.000953 s⁻¹ in experiment [5]; 0.000516 s⁻¹ in experiment [9]; 0.00102 s⁻¹ in experiment [10]; 0.00193 s⁻¹ in experiment [12]; 0.000548 s⁻¹ in [13]. Also, the results for the on-rate constant (kon) in experiment [1] and in [9] were 193000 M⁻¹ s⁻¹ and 164000 M⁻¹ s⁻¹, respectively. For the same molecule, the t½ in experiment [1] stood at 10.7 min; in experiment [5], 12.1 min; in experiment [9] it was 22.4 min; in experiment [10], 11.3 min; in experiment [12], 6 min; in experiment [13], 21.1 min. Besides, in [2], the “t½ pH 7.4/t½ pH 6.0” value came to 0.5. In addition, the “t½ pH 7.4/t½ pH 5.0” value in experiment [3] is 0.3. In addition, the “t½ pH 7.4/t½ pH 5.5” value in experiment [3] stood at 0.5. The molecule further had an EC50 in experiment [4] of 1.92 nM. Further, the “neutralization IC50, Vero cells” value was determined as 0.171 nM in experiment [6], 1.14 nM in [7] and 1.26 nM in experiment [8]. Moreover, the “IC50 (read off the curve)” value in experiment [11] is around 1 nM.

B2: H4H25704N (antibody, V domains shown)
VH: QVQLVESGGGVVQSGRSLRLSCAASGFTFIYYGMHWVRQAPGKGLEWVAVISYDGSDRYYADSVKGRFTISRDDSKNTLYLQMNSLRPEDTAVYYCAKDRGGRFDYWGQGTLVTVSS
VL: EIVLTQSPGTLSLSPGERATLSCRASQSVNNNYLAWYQQKPGQAPRLLIYGASSRATGIPDRFGGGGSGTDFTLTISRLEPEDFAVYYCQRYGNSPLTFGGGTKVEIK
As for B2, the equilibrium dissociation constant (Kd) in experiment [1] is 0.621 nM; in experiment [9] it was 0.27 nM. In addition, the off-rate constant (koff) in [1] was 0.0012 s⁻¹; in experiment [5], 0.00107 s⁻¹; in experiment [9] it was 0.000359 s⁻¹; in [10], 0.00131 s⁻¹; in [12] it was 0.00121 s⁻¹; in [13], 0.000959 s⁻¹. Besides, the kon in [1] was 1.93e+06 M⁻¹ s⁻¹; in experiment [9], 1.33e+06 M⁻¹ s⁻¹. The t½ in experiment [1] is 9.6 min; in experiment [5] it was 10.8 min; in experiment [9], 32.2 min; in experiment [10], 8.85 min; in [12], 9.56 min; in experiment [13], 12 min. In addition, the “t½ pH 7.4/t½ pH 6.0” value in experiment [2] was 1.1. For the same molecule, the concentration for a half-maximal effect (EC50) in experiment [14] worked out at 0.18 nM. Moreover, the “t½ pH 7.4/t½ pH 5.0” value in experiment [3] turned out to be 0.8. Besides, in experiment [3], the “t½ pH 7.4/t½ pH 5.5” value came out at 0.9. The “neutralization IC50, Vero cells” value in experiment [6] turned out to be 0.046 nM; in [7] it was 0.278 nM; in [8], 0.0758 nM.

B3: H4H25617P (antibody, V domains shown)
VH: EVQLVESGGGLVQPGGSLRLSCSASGFTFTTYAMSWVRQAPGRGLEWVSSISGTGVSTYYADSVKGRFTISRDNSKNALYLQMNSLTAEDTAVYYCAKDSGTYHWGQGTLVTVSS
VL: EIVLTQSPATLSLSPGERATLSCRASQSVDSYLAWYQQKPGQAPRLLIYDASNRATGIPARFSGSGSGTDFTLTISSLESEDFAVYYCQQRRNWPQFTFGGGTKVEIK
On to B3, for which the Kd in experiment [1] worked out at 16.1 nM; in experiment [9] it was 7.9 nM. The off-rate constant (koff) turned out to be 0.00729 s⁻¹ in [1]; 0.00465 s⁻¹ in experiment [5]; 0.00197 s⁻¹ in [9]; 0.00494 s⁻¹ in experiment [10]; 0.00602 s⁻¹ in experiment [12]; 0.00464 s⁻¹ in experiment [13]. Besides, the association rate constant (kon) in experiment [1] was determined as 452000 M⁻¹ s⁻¹; in experiment [9] it was 250000 M⁻¹ s⁻¹. For the same molecule, the t½ in [1] amounted to 1.6 min; in experiment [5], 2.48 min; in experiment [9], 5.9 min; in [10], 2.34 min; in [12], 1.92 min; in experiment [13], 2.5 min. Also, the “t½ pH 7.4/t½ pH 6.0” value in experiment [2] turned out to be 0.8. The “t½ pH 7.4/t½ pH 5.0” value in experiment [3] is 0.8. In addition, the “t½ pH 7.4/t½ pH 5.5” value in experiment [3] was found to be 0.8. Moreover, a half-maximal effect in experiment [4] (EC50) was put at 0.755 nM. Moreover, the “neutralization IC50, Vero cells” value was found to be 0.166 nM in experiment [6], 0.543 nM in [7] and 0.552 nM in [8].

B4: H4H25622P (antibody, V domains shown)
VH: QVQLVESGGGVVQPGRSLRLSCAASGFTFSSYGMHWVRQAPGKGLEWLAIIWYDGTNKQYVDSVKGRFTISRDNSKNTLYLQLNSLRAEDTAVYYCARQDFYYYYGMDVWGQGTTVTVSS
VL: not shown
As to B4, the Kd worked out at 9.07 nM in [1] and 5.31 nM in [9]. Also, the off-rate constant (koff) in experiment [1] was determined as 0.00267 s⁻¹; in [5], 0.00178 s⁻¹; in experiment [9], 0.00133 s⁻¹; in experiment [10], 0.00234 s⁻¹; in experiment [12] it was 0.00318 s⁻¹; in experiment [13], 0.000704 s⁻¹. Further, the on-rate constant (kon) in [1] is 295000 M⁻¹ s⁻¹; in experiment [9] it was 251000 M⁻¹ s⁻¹. The t½ in experiment [1] turned out to be 4.3 min; in experiment [5], 6.49 min; in experiment [9], 8.7 min; in experiment [10], 4.93 min; in [12], 3.63 min; in experiment [13], 16.4 min. Besides, the “t½ pH 7.4/t½ pH 6.0” value in [2] amounted to 0.7. The “t½ pH 7.4/t½ pH 5.0” value in experiment [3] was determined as 0.2. The “t½ pH 7.4/t½ pH 5.5” value in [3] was 0.6. In addition, the response in experiment [4] was half-maximal at 2.44 nM (EC50). Further, the figures for the “neutralization IC50, Vero cells” value in [6], in [7] and in [8] were 0.188 nM, 1.28 nM and 1.58 nM, respectively.

B5: H4H25640P (antibody, V domains shown)
VH: QVQLVESGGGVVQPGRSLRLSCAASGFTFSYYGMHWVRQAPGKGLEWVAVILYDGSNKFYSDSVKGRFTISRDNSRNTLYLQMNSLRLEDTAVYYCAKDYGGRFDYWGQGTLVTVSS
VL: EIVLTQSPGTLSLSSGERATLSCRASQSVSNKYLAWYQQKPGQVPRLLIYGASNRATGIPDRFSGSGSGTDFTLTINRLEPEDFAVFYCQQYGSTPSTFGQGTKVEIK
B5: the Kd stood at 1.27 nM in [1] and 0.597 nM in [9]. Besides, the koff stood at 0.00186 s⁻¹ in experiment [1]; 0.00402 s⁻¹ in [5]; 0.000722 s⁻¹ in experiment [9]; 0.00323 s⁻¹ in experiment [10]; 0.00172 s⁻¹ in experiment [12]; 0.00337 s⁻¹ in experiment [13]. Further, the kon in experiment [1] stood at 1.47e+06 M⁻¹ s⁻¹; in experiment [9], 1.21e+06 M⁻¹ s⁻¹. The t½ came out at 6.2 min in experiment [1]; 2.87 min in [5]; 16 min in [9]; 3.58 min in [10]; 6.72 min in experiment [12]; 3.4 min in [13]. Further, the “t½ pH 7.4/t½ pH 6.0” value in [2] came to 1.9. The same molecule registered an EC50 in experiment [14] of 0.102 nM. Besides, in experiment [3], the “t½ pH 7.4/t½ pH 5.0” value turned out to be 2. Further, the “t½ pH 7.4/t½ pH 5.5” value in experiment [3] worked out at 2.3. Further, the “neutralization IC50, Vero cells” value in experiment [6] is 0.0279 nM; in experiment [7] it was 0.166 nM; in experiment [8] it was 0.099 nM.

B6: H2aM25710N (antibody, V domains shown)
VH: EVQLLESGGGLVQPGGSLRLSCAASGFTVSNNYMSWVRQAPGKGLEWVSVIYSGGRTNYGDSVKGRFTISRDNSKNTLYLQMNSLRAEDTAVYYCARENYDFWSGDPYGWDVWGQGTTVTVSS
VL: DIQMTQSPSSLSASVGDRVTITCRASQDISNYLAWFQQKPGKAPKSLIYGASSLQRGVPSKFRGSGSGTDFTLTISSLQPEDFASYYCQQYNSYPYTFGQGTKLEIK
As for B6, the “neutralization IC50, Vero cells” value in experiment [15] was found to be 0.017 nM. In experiment [4], this molecule returned a concentration giving a half-maximal response (EC50) of 0.244 nM.
